{"source": "paper doi:10.1101/2025.03.19.644215", "about": "(bioRxiv, 2025)", "proteins": {"B1": {"name": "S. cerevisiae Dmc1 (natural protein)", "chain": "MSVTGTEIDSDTAKNILSVDELQNYGINASDLQKLKSGGIYTVNTVLSTTRRHLCKIKGLSEVKVEKIKEAAGKIIQVGFIPATVQLDIRQRVYSLSTGSKQLDSILGGGIMTMSITEVFGEFRCGKTQMSHTLCVTTQLPREMGGGEGKVAYIDTEGTFRPERIKQIAEGYELDPESCLANVSYARALNSEHQMELVEQLGEELSSGDYRLIVVDSIMANFRVDYCGRGELSERQQKLNQHLFKLNRLAEEFNVAVFLTNQVQSDPGASALFASADGRKPIGGHVLAHASATRILLRKGRGDERVAKLQDSPDMPEKECVYVIGEKGITDSSD", "notes": "Dmc1 meiotic recombinase, Saccharomyces cerevisiae; expressed from a plasmid encoding 6XHisDmc1; Stood in the assay as a helical filament of many protomers, assembled with a 96-nt ssDNA, ADP, Mg2+ and Ca2+; no removal of the His tag is described; also called Dmc1-ADP; source: E. coli BL21 (DE3) Rosetta2, purified (Talon resin, heparin sepharose)"}}, "molecular_target": "the molecule itself", "experiment": "cryo-EM structure; Dmc1 2.5 uM with 0.125 uM 96-mer ssDNA in HR buffer with 1.5 mM CaCl2 and 5 mM ADP, 30°C 5 min, then 8 mM CHAPSO; helical filament in the ADP-bound state (interdigitated filaments masked to a single filament); filament formation required the ssDNA"}
{"protein": "B1", "values": [{"measurement": "binding result", "value": "binds"}]}
